Experimental findings from PMC9080894 are described below.

Data set [1] concerns the target T1, thrombin, BODIPY-labeled (human, UniProt P00734;P00734 328-363;364-622). Description: single-particle fluorescence microscopy of aptamer-coated microspheres.
Data set [2] concerns the target T1, thrombin, BODIPY-labeled. Description: single-particle fluorescence microscopy of coated microspheres.

In the case of TTCACTGTGGTTGGTGTGGTTGG (structured_DNA, 5'-NH2) [ssTBA], in the data set with thrombin, BODIPY-labeled [1], the binding result is “binds”.
As for CCAACCACAGTGTT (ssDNA, 3'-NH2) [NH2-com], in the data set with thrombin, BODIPY-labeled [2], the binding result is “no binding”.
